Experimental data taken from the supplement of paper PMC10567573.

B1: RAB22A (parent)
chain: FVEDSFDPNINPTIGASFMTKTVQ
B2: YPEL3 (parent)
chain: SKPKTFQAYLDDCHRRYSCAHCRA

Variants of: B1
Test: protein stability index of a GFP-peptide fusion (GPS, HEK-293T) (PSI 1-6); higher = more stable
Details: c terminus: a fixed tail appended
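Further: lentivirally expressed fusions sorted by FACS into six bins by GFP to DsRed ratio, PSI derived from sequencing read proportions per bin multiplied by bin number.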

Variant	protein stability index
F1M	3.61
F1K	4.2
F1A	4.1
F1H	4.25
F1C	3.75
F1Q	4.25
F1T	4.36
F1N	4.44
F1E	4.66
F1R	4.24
F1W	3.41
F1V	3.79
F1L	3.51
F1G	4.4
F1S	3.98
F1Y	2.91
F1P	4.42
F1I	3.72
F1D	4.45
V2E	3.95
V2K	3.69
V2C	3.14
V2F	2.89
V2D	4.03
V2A	3.54
V2H	3.61
V2I	2.81
V2G	3.77

Variants of: B2
Test: as above
Details: c terminus: a fixed tail appended

Variant	protein stability index
Y17M	1.64
Y17K	3.43
Y17N	1.8
Y17E	2.66
Y17F	3.01
Y17T	2.37
Y17S	1.89
Y17I	2.13
Y17H	2.07
Y17L	2
Y17D	2.44
Y17R	2.79
Y17G	2.02
Y17V	1.39
Y17P	1.93
C22Y	2.17
C22N	2.45
C22L	2.37
C22I	2.69
C22P	2.61
C22K	2.86
C22A	2.04
C22V	2.64
C22R	2.63

Variant	protein stability index
C22H	1.82
C22E	2.34
C22Q	3.22
C22W	1.77
C22T	2.73
C22G	2.75
C22F	2.32
C22S	1.86
C22D	2.94
C22M	1.98
C19N	3.42
C19Y	2.44
C19H	2.96
C19S	2.87
C19E	3.18
C19A	2.51
C19G	2.68
C19Q	2.53
C19W	1.66
C19L	2.08
C19R	2.04
C19K	2.64
C19V	2.41
C19D	3.27

Variant	protein stability index
C19F	1.53
C19I	2.33
C19T	2.44
C19M	1.63
C19P	2.85
R23N	2.91
R23I	3.07
R23D	2.18
R23C	1.24
R23H	2.59
R23W	2.08
R23G	1.39
R23A	3.07
R23K	2.03
R23E	2.09
R23L	2.37
R23M	2
R23F	2.61
R23P	2.11
R23S	3.52
R23Q	1.86
R23V	3.34
H21D	2.18
H21M	1.18

Variant	protein stability index
H21Q	2
H21K	2.37
H21V	1.79
H21Y	1.48
H21I	2.52
H21L	1.74
H21S	2.19
H21R	3.32
H21N	1.57
H21T	2.34
H21G	1.28
H21P	1.9
H21W	1.65
H21A	2.06
H21F	1.52
H21C	1.83
S18E	1.52
S18G	2.5
S18D	1.5
S18M	2.73
S18I	2.37
S18Q	1.86
S18N	2.06
S18P	2.15

Variant	protein stability index
S18L	2.14
S18W	1.52
S18Y	1.48
S18F	1.91
S18T	2.37
S18K	2.01
S18R	2.56
A20H	2.04
A20R	1.72
A20Q	1.71
A20Y	2.16
A20L	1.64
A20E	1.46
A20W	3.14
A20K	2.95
A20V	2.02
A20C	1.31
A20N	2.92
A20T	2.29
A20D	1.1
A20F	2.22
A20P	1.92
A20S	1.46
A20I	1.89

Variant	protein stability index
A24N	2
A24R	1.71
A24V	1.84
A24Y	2.86
A24L	1.87
A24M	2.07
A24D	1.73
A24I	2
A24G	2.32
A24W	2.39
A24H	1.85
A24E	1.71
A24P	2.24
A24K	3.42
A24Q	2.59
A24F	2.59
A24S	1.54
A24T	1.54
A24C	1.83
